# According to article PMC4619145 (Virology, 2015):
# T1: DENV-2 envelope glycoprotein E domain III (DIII), wild type, displayed on M13 phage (Dengue virus 2, Jamaica/1409/1983)
# T1 chain: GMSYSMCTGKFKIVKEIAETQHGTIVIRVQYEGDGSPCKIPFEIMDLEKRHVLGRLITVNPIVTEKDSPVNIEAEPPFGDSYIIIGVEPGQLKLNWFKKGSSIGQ
# T2: DENV-3 envelope glycoprotein E domain III (DIII), wild type, displayed on M13 phage (Dengue virus 3, Thailand/PaH881/1988)
# T2 chain: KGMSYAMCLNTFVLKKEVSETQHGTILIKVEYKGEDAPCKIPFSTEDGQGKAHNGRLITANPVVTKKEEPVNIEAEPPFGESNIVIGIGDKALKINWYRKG
# B1: monoclonal antibody 4E11 (IgG) (antibody, V domains shown)
# VH: VKLLEQSGAELVKPGASVRLSCTASGFNIKDTYMSWVKQRPEQGLEWIGRIDPANGDTKYDPKFQGKATITADTSSNTAYLHLSSLTSGDTAVYYCSRGWEGFAYWGQGTLVTVSA
# VL: ELVMTQTPASLAVSLGQRATISCRASENVDRYGNSFMHWYQQKAGQPPKLLIYRASNLESGIPARFSGSGSRTDFTLTINPVEADDVATYFCQRSNEVPWTFGGGTKLEIK
# Legend:
# [1] = target: T1, DENV-2 envelope glycoprotein E domain …; assay: ELISA
# [2] = target: T2, DENV-3 envelope glycoprotein E domain …; assay: ELISA
binder,measurement,setting,value
B1,binding result,[1],binds
same,binding result,[2],binds
